This note sets out measurements from patent US20020012942A1, “POLYPEPTIDES WITH A4 INTEGRIN SUBUNIT RELATED ACTIVITY” (Regents of the University of Minnesota, priority 1998, published 2002).

In series [1] the test system is A375SM human melanoma cells. As to the kind of experiment: Trypan blue exclusion assay. The class given is cell-based.
Series [2] deals with A375SM human melanoma cells. As to the kind of experiment: Cell adhesion assay: A375SM melanoma cell adhesion to substrata coated with CS1/OVA. The format is cell-based. To be noted: A375SM cells on coated substrata. The procedure: Cell adhesion assays were performed as previously described in Iida et al., J. Cell Biol., 118, 431-444 (1992) with minor modifications. Ligands were diluted in PBS, and 50 μl aliquots were dispersed in triplicate into Immulon-1 polystyrene microtiter wells. The wells were incubated at 37° C. overnight, and nonspecific binding sites on plastic were then blocked by treating the wells with 200 ul of PBS/BSA.
Subconfluent A375SM human melanoma cells which had been radiolabeled overnight with ^3H-thymidine (3HTdR, specific activity 6.7 Ci/mmol; NEN Research Products, Boston, Mass.), were harvested by rinsing with 1 mM EDTA, washed two times with EMEM/BSA (EMEM containing 2 mg/ml BSA and 0.15 mM Hepes, pH 7.2) and adjusted to a concentration of […] in the same medium. Aliquots of 100 ul of the cell suspension were dispensed into the wells and the cells were incubated at 37° C. for 30 min. The assays were terminated by aspirating loosely bound and unbound cells from the wells, washing the wells three times, and solubilizing the bound cells in 0.5 N NaOH containing 1% SDS. Bound radioactivity, determined in a Beckman Model 3801 Liquid Scintillation Counter, was used to calculate the percentage of cells which remained adherent to each substratum. Unless otherwise indicated, the data represent the mean of triplicate determinations. […]

The target in series [3] is MPG/NG2 chondroitin sulfate proteoglycan (human) (UniProt Q6UVK1). Nature of the series: SG1 peptide affinity column with purified MPG/NG2, linear NaCl gradient 15 mM to 1 M.
MPG/NG2 chondroitin sulfate proteoglycan (human), sequence (Q6UVK1 30-2322): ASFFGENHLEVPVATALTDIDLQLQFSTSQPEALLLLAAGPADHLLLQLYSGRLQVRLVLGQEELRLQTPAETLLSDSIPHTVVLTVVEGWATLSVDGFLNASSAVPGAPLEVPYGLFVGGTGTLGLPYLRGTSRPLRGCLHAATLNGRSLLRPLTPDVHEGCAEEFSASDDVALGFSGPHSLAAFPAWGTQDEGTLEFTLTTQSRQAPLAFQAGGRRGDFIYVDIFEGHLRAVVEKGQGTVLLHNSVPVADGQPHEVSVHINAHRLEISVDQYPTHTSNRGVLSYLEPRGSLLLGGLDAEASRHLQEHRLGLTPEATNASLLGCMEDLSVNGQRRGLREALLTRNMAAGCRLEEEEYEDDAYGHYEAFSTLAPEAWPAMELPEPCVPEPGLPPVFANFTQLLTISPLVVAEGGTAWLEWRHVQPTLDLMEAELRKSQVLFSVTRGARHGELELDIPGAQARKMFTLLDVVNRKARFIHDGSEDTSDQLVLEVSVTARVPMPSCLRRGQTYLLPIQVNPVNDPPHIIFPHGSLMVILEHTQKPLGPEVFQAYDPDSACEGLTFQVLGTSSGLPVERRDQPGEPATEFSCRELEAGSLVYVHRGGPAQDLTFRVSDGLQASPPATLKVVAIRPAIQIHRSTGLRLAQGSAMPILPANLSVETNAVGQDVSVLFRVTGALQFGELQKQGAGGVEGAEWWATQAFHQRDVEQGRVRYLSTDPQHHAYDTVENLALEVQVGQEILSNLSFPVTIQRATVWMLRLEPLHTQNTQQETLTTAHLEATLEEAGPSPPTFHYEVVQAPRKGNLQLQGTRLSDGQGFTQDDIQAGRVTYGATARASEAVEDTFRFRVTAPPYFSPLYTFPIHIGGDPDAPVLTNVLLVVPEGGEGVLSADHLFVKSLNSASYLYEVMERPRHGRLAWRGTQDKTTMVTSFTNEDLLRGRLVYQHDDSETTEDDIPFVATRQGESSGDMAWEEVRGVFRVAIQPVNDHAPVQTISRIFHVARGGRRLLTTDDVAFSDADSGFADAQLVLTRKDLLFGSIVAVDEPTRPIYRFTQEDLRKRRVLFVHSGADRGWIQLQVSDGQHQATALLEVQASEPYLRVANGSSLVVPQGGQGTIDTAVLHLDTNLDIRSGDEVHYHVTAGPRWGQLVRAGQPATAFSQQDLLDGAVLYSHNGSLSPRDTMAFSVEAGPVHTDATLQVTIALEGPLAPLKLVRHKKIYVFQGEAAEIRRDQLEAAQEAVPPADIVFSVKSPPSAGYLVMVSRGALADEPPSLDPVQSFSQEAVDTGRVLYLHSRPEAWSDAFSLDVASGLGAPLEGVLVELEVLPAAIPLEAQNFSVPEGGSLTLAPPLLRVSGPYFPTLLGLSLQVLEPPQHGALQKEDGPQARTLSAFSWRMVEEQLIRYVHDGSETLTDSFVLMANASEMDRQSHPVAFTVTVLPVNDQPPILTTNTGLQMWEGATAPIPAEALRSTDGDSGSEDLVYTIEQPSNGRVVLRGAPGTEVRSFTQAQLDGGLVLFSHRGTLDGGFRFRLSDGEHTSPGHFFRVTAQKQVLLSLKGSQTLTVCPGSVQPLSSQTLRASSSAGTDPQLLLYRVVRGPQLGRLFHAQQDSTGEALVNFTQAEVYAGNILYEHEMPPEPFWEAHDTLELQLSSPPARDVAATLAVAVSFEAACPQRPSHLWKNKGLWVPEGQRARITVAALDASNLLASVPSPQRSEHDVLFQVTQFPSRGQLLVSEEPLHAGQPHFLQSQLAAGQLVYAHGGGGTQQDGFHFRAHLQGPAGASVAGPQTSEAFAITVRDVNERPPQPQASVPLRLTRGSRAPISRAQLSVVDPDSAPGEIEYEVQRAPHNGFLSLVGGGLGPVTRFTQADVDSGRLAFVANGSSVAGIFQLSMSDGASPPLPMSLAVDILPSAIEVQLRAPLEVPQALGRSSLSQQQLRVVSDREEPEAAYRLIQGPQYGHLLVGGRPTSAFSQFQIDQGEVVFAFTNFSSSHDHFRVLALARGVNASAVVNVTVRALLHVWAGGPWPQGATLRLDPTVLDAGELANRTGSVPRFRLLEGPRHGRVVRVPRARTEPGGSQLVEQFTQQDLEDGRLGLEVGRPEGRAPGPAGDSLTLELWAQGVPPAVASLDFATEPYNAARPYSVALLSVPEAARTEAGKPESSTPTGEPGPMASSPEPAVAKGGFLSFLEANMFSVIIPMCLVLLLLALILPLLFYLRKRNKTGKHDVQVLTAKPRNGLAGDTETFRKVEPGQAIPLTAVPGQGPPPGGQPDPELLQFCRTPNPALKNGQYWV
For another series, the target named is CD44 proteoglycan (human, UniProt P16070-12 21-361, limits assumed). Nature of the series: SG1 peptide affinity column with 125I-labeled melanoma cell lysate; pooled eluate immunoprecipitated with anti-CD44. The procedure: Peptide-affinity chromatography was performed according to the methods described in Iida et al., J. Cell Biol., 118, 431-444 (1992). SG1 was immobilized on CH-Spharose and blocked using standard methods as described in the manufacturer's instruction. (available from Pharmacia). Human melanoma cells were surface radiolabeled with ¹²⁵I using lactoperoxidase and extracted as described in Iida et al., Cancer Res., 55, 2177-2185 (1995). Cells were extracted with 50 mM Tris-HCl (pH 7.3) containing 50 mM β-octylglucoside, 15 mM NaCl, 1 mM Ca²+, 1 mM Mg²+, 1 mM Mn²+, 1 mM PMSF, and 1 mM NEM (extraction buffer) and then centrifuged at 36500 rpm for 1 h at 4° C. The cell lysates were first precleared by incubating with a mock-column, where no peptide was immobilized, and then applied on the SG1 column. The column was extensively washed with the extraction buffer and then bound proteins were subsequently eluted by a linear gradient of sodium chloride (15 mM to 1 M). Each fraction was counted by r-counter and positive fractions were pooled and immunoprecipitated as described below.
CD44 proteoglycan, sequence (P16070 other isoform, or with tags, fused parts or gaps limits assumed): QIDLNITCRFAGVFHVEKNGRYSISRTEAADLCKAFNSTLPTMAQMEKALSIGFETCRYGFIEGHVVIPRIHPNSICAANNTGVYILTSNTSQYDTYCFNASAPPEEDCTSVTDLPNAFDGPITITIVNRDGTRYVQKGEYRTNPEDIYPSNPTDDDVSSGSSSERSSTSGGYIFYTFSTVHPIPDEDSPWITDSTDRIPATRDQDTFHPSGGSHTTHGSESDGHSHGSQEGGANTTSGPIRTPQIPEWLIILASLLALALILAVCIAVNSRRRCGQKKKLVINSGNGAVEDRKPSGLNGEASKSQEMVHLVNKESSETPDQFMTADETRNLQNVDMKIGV
In order to study the function of SG1 site in α4β1 integrin, affinity chromatography was performed using immobilized SG1 polypeptide. […] Open circles represent the radioactivity in each fraction and the solid line represents the concentration of NaCl in each fraction. […]

Like-named read-outs stand apart in the source and are kept apart here. Where no end group is shown, it is not given here.

As for “DELPQLVTLPHPNLHGPEILDVPST [CS1, reference compound]”, the “Toxic activity on the cells (trypan blue exclusion)” value in series [1] (not shown) was “not be due to their toxic activity”.

On to LQQKKEKDIMKKTI [SG1, LQQKKEKDIMKKTI], for which the “Toxic activity on the cells (trypan blue exclusion)” value in series [1] is given as “not be due to their toxic activity”.

B1: CS1/OVA: CS1 polypeptide chemically conjugated to ovalbumin using EDC (conjugate)
peptide: DELPQLVTLPHPNLHGPEILDVPST
chain: GSIGAASMEFCFDVFKELKVHHANENIFYCPIAIMSALAMVYLGAKDSTRTQINKVVRFDKLPGFGDSIEAQCGTSVNVHSSLRDILNQITKPNDVYSFSLASRLYAEERYPILPEYLQCVKELYRGGLEPINFQTAADQARELINSWVESQTNGIIRNVLQPSSVDSQTAMVLVNAIVFKGLWEKAFKDEDTQAMPFRVTEQESKPVQMMYQIGLFRVASMASEKMKILELPFASGTMSMLVLLPDEVSGLEQLESIINFEKLTEWTSSNVMEERKIKVYLPRMKMEEKYNLTSVLMAMGITDVFSSSANLSGISSAESLKISQAVHAAHAEINEAGREVVGSAEAGVDAASVSEEFRADHPFLFCIKHIATNAVLFFGRCVSP
Take B1: the “Coating concentration that promoted half maximal cell adhesion” value in series [2] was 5 µg/mL.

B2: SG1 polypeptide (peptide)
peptide: LQQKKEKDIMKKTI
modifications: Immobilized on CH-Sepharose (CH-affinity beads) in the affinity chromatography; the coupling to the support is not carried by the letters.
notes: Synthetic peptide; used as soluble peptide in the adhesion assays; also called L-SG1; polypeptide SG1
Molecule B2 came in with a NaCl concentration at elution in series [3] of 0.13 to 0.15 M. Further, the binding result with CD44 proteoglycan is on record as “no binding”.
